In paper doi:10.1101/2022.10.13.511954 (bioRxiv, 2022):
Where a chain is given by its changes, count along the chain named. Names and notes keep the numbering of the source. Where two headings read alike, the source gives them in different places. Values belong to the binder of their own block, whether it stands above or below them.

Key:
[1] = molecular target: T1, (MBP)2-WRC, human WAVE regulatory complex (human, UniProt Q7L576 1-1253; Q9Y2A7 1-1128; Q92558 1-178; Q9NYB9 1-158; Q8WUW1 1-75); assay: pull-down
[2] = molecular target: T1, (MBP)2-WRC, human WAVE regulatory …; assay: pull-down; remark: listed apart in the source

- binding result [1]: binds
B1: GST-tagged cytoplasmic domain of DCC (GST-DCC^cyto) (domain or fragment, human, UniProt P43146 1123-1447, looked up)
chain: RRSSAQQRKKRATHSAGKRKGSQKDLRPPDLWIHHEEMEMKNIEKPSGTDPAGRDSPIQSCQDLTPVSHSQSETQLGSKSTSHSGQDTEEAGSSMSTLERSLAARRAPRAKLMIPMDAQSNNPAVVSAIPVPTLESAQYPGILPSPTCGYPHPQFTLRPVPFPTLSVDRGFGAGRSQSVSEGPTTQQPPMLPPSQPEHSSSEEAPSRTIPTACVRPTHPLRSFANPLLPPPMSAIEPKVPYTPLLSQPGPTLPKTHVKTASLGLAGKARSPLLPVSVPTAPEVSEESHKPTEDSANVYEQDDLSEQMASLEGLMKQLNAITGSAF

- binding result [2]: binds
B2: GST-DCC^R1343H-cyto (domain or fragment, human, UniProt P43146 1123-1447, looked up)
chain: B1 chain with R221H

- binding result [2]: binds
B3: GST-DCC^ΔWIRS-cyto (domain or fragment, human, UniProt P43146 1123-1447, looked up)
chain: B1 chain with S222A, F223A
